Positions of bridges follow the written chain, without caps; N, C: chain ends. No end group written: not given here.
Target: T1, soluble EGFR (amino acids 1-621) (UniProt P00533 25-645)
T1 construct: range 1-621; Amine-coupled to a CM-5 chip on flowcell 3; also called soluble ErbB1; ErbB-1
Experiment: BIAcore 3000, receptor amine-coupled to CM-5 chip, peptide injected
Method: Biosensor analyses were performed using a BIAcore™ 3000. A CM-5 (research grade) sensor chip was immobilized with soluble EGFR (amino acids 1-501), soluble EGFR (amino acids 1-621) and soluble ErbB2 (amino acids 1-509) on flowcells 2, 3 and 4, respectively. Immobilizations were performed using amine coupling chemistry in 10 mM Sodium Acetate at pH 4.2. Varying concentrations (1.25 μM, 2.5 μM, 5 μM and 10 μM) of peptides were injected (30 μl) over the sensor surfaces in HBS running buffer (10 mM HEPES, 3.4 mM EDTA, 0.15M NaCl, 0.005% Tween 20, pH 7.4) at a flow rate of 5 μl/min. The surfaces were then regenerated by injecting 10 μl of 10 mM NaOH at a flow rate of 20 μl/min. The resulting sensor curves were subtracted against the blank channel (Flowcell 1) to yield the specific response.

binding result: no binding (tested: up to 10 uM)
B1: Human NRG2 (1-32) (peptide)
peptide: GHARKCNETAKSYCVNGGVCYYIEGINQLSCK-OH
modifications: disulfide 14-20, 6-31; N-terminus assumed
SMILES: CC[C@H](C)[C@@H]1NC(=O)CNC(=O)[C@H](CCC(=O)O)NC(=O)[C@H]([C@@H](C)CC)NC(=O)[C@H](Cc2ccc(O)cc2)NC(=O)[C@H](Cc2ccc(O)cc2)NC(=O)[C@@H]2CSSC[C@H](NC(=O)[C@H](Cc3ccc(O)cc3)NC(=O)[C@H](CO)NC(=O)[C@H](CCCCN)NC(=O)[C@H](C)NC(=O)[C@H]([C@@H](C)O)NC(=O)[C@H](CCC(=O)O)NC(=O)[C@H](CC(N)=O)NC(=O)[C@@H](NC(=O)[C@H](CCCCN)NC(=O)[C@H](CCCNC(=N)N)NC(=O)[C@H](C)NC(=O)[C@H](Cc3c[nH]cn3)NC(=O)CN)CSSC[C@@H](C(=O)N[C@@H](CCCCN)C(=O)O)NC(=O)[C@H](CO)NC(=O)[C@H](CC(C)C)NC(=O)[C@H](CCC(N)=O)NC(=O)[C@H](CC(N)=O)NC1=O)C(=O)N[C@@H](C(C)C)C(=O)N[C@@H](CC(N)=O)C(=O)NCC(=O)NCC(=O)N[C@@H](C(C)C)C(=O)N2
notes: V8 digestion and mass spectrometry indicate C1-C4 and C2-C3 disulfide bridges; also called hNRG2 (1-32); hNRG2(1-32)
